Measurements taken from patent US20220372542A1, “DETECTION OF ANALYTES BY PROTEIN SWITCHES” (ABBOTT DIABETES CARE INC., priority 2019, published 2022).

Columns and labels:
[1] = Warfarin inhibition of protein switch sensors in test beaker; assay type: biochemical; conditions: 100 mM PBS 33° C., 10 mM NAD+; for effect of increasing warfarin concentrations on sensor signal: 5 mM glucose, 10, 30, 80, 180, 300 uM warfarin, FIGS. 12A, 12B, 13; for sensor response to glucose addition: glucose 5 mM
Description: Warfarin Sensor. Experimental GDH-105 and GDH-2016 glucose-responsive active areas were prepared using a single-layer active area system. The GDH was obtained from Codexis, Redwood City, Calif. The active area was coated onto a carbon working electrode in a single layer composition (Table 8). Following deposition of the active area, the active area was cured for three days at RT.
Experimental procedure. Testing of the GDH-105 and GDH-2016 sensors was conducted by immersing the electrode in a 100 mM PBS buffer solution at 33° C. NAD^+ (5 mM) supplied to a test beaker containing PBS buffer followed by the addition of glucose (1 mM).
Evolved Warfarin sensors. GDH-105, GDH-2016, GDH-2025, GDH-2026, GDH-2027, and GDH-2028 glucose-responsive active areas were prepared using a single-layer active area system. The GDH was obtained from Codexis, Redwood City, Calif. The active area (0.33 mm^2) was coated onto a carbon working electrode in a single layer composition (Table 8). Following deposition of the active area, the active area was cured for three days at room temperature.
Experimental procedure. Testing of the GDH-105, GDH-2016, GDH-2025, GDH-2026, GDH-2027, and GDH-2028 sensors was conducted by immersing the electrode in a 100 mM PBS buffer solution at 33° C. NAD^+(10 mM) supplied to a test beaker containing PBS buffer followed by the addition of glucose (5 mM).

[2] = Beaker stability (long-term stability) of protein switch sensors; assay type: physicochemical; conditions: Sensor in 30 mM glucose in 100 mM PBS at 33° C., after 1 day
Description: Beaker Stability. The beaker stability (long-term stability) of the sensor GDH-105 and the sensors comprising the protein switches GDH-2004, GDH-2007, GDH-2008, GDH-2009, GDH-2010, GDH-2011, GDH-2015, GDH-2018, GDH-2019, GDH-2005, GDH-2013, GDH-2016, and GDH-2024 described above were evaluated in 30 mM glucose in 100 mM PBS at 33° C. as shown in FIG. 8. After 4 days, each of the signals experienced a sensor drop (decreased stability for detecting glucose) at different rates, as shown in Table 10.
Beaker Stability. The beaker stability (long-term stability) of the GDH-105, GDH-2025, GDH-2026, GDH-2027, and GDH-2028 sensors were evaluated in 30 mM glucose in 100 mM PBS at 33° C. as shown in FIG. 11. After 1 day, each of the signals experience sensor drop (decreased stability for detecting glucose) of different rates, as provided in Table 12.

[3] = Beaker calibration: glucose sensitivity of protein switch sensors; assay type: biochemical; conditions: Sensor active area 0.33 mm^2 with PVP membrane; 100 mM PBS, room temperature, 1-30 mM glucose

| Molecule | effect of increasing warfarin concentrations on sensor signal [1] | sensor response to glucose addition [1] | Signal drop (1 day) [2] | Sensitivity [3] |
| --- | --- | --- | --- | --- |
| GDH-2028: Warfarin protein switch, SEQ ID NO: 15; mutations C96F; L252V (protein) MYPDLKGKVVAITGAASGLGKAMAIRFGKEQAKVVINYYSNKQDPNEVKEEVIKAGGEAVVVQGDVTKEEDVKNIVQTAIKEFGTLDIMINNAGLFNPVPSHEMPLKDWDKVIGTNLTGAFLGSREAIKYFVENDIKGNVINMSSVHEVIPWPLASHYTASKGGMKLMTKTLALEYAPKGIRVNNIGPGAINTTINAEKFADPKQKADVESMIPMGYIGEPEEIAAVAAWLASKEASYVTGITLFADGGMTVYPSFQAGRG | inhibition | showed response to glucose addition | −68% | 0.09 nA/mM |
| GDH-2025: Warfarin protein switch, SEQ ID NO: 1; SEQ ID NO:11 with mutation C96F (protein) AMYPDLKGKVVAITGAASGLGKAMAIRFGKEQAKVVINYYSNKQDPNEVKEEVIKAGGEAVVVQGDVTKEEDVKNIVQTAIKEFGTLDIMINNAGLFNPVPSHEMPLKDWDKVIGTNLTGAFLGSREAIKYFVENDIKGNVINMSSVHEVIPWPLASHYTASKGGMKLMTKTLALEYAPKGIRVNNIGPGAINTTINAEKFADPKQKADVESMIPMGYIGEPEEIAAVAAWLASKEASYVTGITLFADGGMTLYPSFQAGRG | inhibition | showed response to glucose addition | −58% | 0.32 nA/mM |
